Experimental data: patent US20150361176A1 (GlaxoSmithKline, published 2015)

B1: DOM23h-830 (VHH, not shown: small tags and cut ends)
VHH: EVQLLESGGGLVQPGGFLRLSCAASGFTFEGYRMWWVRQAPGKGLEWVSAIDSLGDRTYYADSVKGRFTISRDNSKNTLYLQMNSLRAEDTAVYYCAKQGLTHQSPSTFDYWGQGTLVTVSS
B2: DOM23h-850 (VHH, not shown: small tags and cut ends)
VHH: EVQLLESGGGLVQPGGSLRLSCAASGFTFDAARMWWARQAPGKGLEWVSAIADIGNTTYYADSVKGRFTISRDNSKNTLYLQMNSLRAEDTAVYYCAKQSGSEDHFDYWGQGTLVTVSS
B3: DOM23h-802 (VHH, not shown: small tags and cut ends)
VHH: EVQLLESGGGLVQPGGSLRLSCAASGFTFSEGTMWWVRQAPGKGLEWVSAILAAGSNTYYADSVKGRFTISRDNSKNTLYLQMNSLRAEDTAVYYCAKKRQERDGFDYWGQGTLVTVSS
B4: DOM23h-813 (VHH, not shown: small tags and cut ends)
VHH: EVQLLESGGGLVQPGGSLRLSCAASGSTFTDDRMWWVRQAPGKGLEWVSAIQPDGHTTYYADSVKGRFTISRDNSKNTLYLQMNSLRAEDTAVYYCAEQDVKGSSSFDYWGQGTLVTVSS
B5: DOM23h-883 (VHH, not shown: small tags and cut ends)
VHH: EVQLLESGGGLVQPGGSLRLSCAASGFTFVNYRMWWVRQAPGKGLEWVSAISGSGDKTYYADSVKGRFTISRDNSKNTLYLQMNSLRAEDTAVYYCAKHGLSFDYWGQGTLVTVSS
B6: DOM23h-903 (VHH, not shown: small tags and cut ends)
VHH: EVQLLESGGGLVQPGGSLRLSCAASGFTFNDMRMWWVRQAPGKGLEWVSVINADGNRTYYADSVKGRFTISRDNSKNTLYLQMNSLRAEDTAVYYCAKDGLPFDYWGQGTLVTVSS
B7: DOM23h-831 (VHH, not shown: small tags and cut ends)
VHH: EVQLLESGGGLVQPGGSLRLSCAASGFTFEAYKMTWVRQAPGKGLEWVSYITPSGGQTYYADSVKGRFTISRDNSKNTLYLQMNSLRAEDTAVYYCAKYGSSFDYWGQGTLVTVSS
B8: DOM23h-842 (VHH, not shown: small tags and cut ends)
VHH: EVQLLESGGGLVQPGGSLRLSCAASGFTFDDSEMAWARQAPGKGLEWVSLIRRNGNATYYADSVKGRFTISRDNSKNTLYLQMNSLRAEDTAVYYCAKVTKDRSVLFDYWGQGTLVTVSS
B9: DOM23h-828 (VHH, not shown: small tags and cut ends)
VHH: EVQLLESGGGLVQPGGSLRLSCAASGFTFMSYRMWWVRQAPGKGLEWVSAISPSGSDTYYADSVKGRFTISRDNSKNTLYLQMNSLRAEDTAVYYCAKQVVEYSRTHKGVFDYWGQGTLVTVSS
B10: DOM23h-840 (VHH, not shown: small tags and cut ends)
VHH: EVQLLESGGGLVQPGGSLRLSCAASGFTFGDGRMWWVRQAPGKGLEWVSAIEGAGSDTYYADSVKGRFTISRDNSKNTLYLQMNSLRAEDTAVYYCAKQASRNSPFDYWGQGTLVTVSS
B11: DOM23h-803 (VHH, not shown: small tags and cut ends)
VHH: EVQLLESGGGLVQPGGSLRLSCAASGFTFSAGRMWWVRQAPGKGLEWVSAINRDGTRTYYADSVKGRFTISRDNSKNTLYLQMNSLRAEDTAVYYCAKHDDGHGNFDYWGQGTLVTVSS
B12: DOM23h-854 (VHH, not shown: small tags and cut ends)
VHH: EVQLLESGGGLVQPGGSLRLSCAASGFTFAQDRMWWVRQAPGKGLEWVSAISGSGGSTYYADSVKGRFTISRDNSKNTLYLQMNSLRAEDTAVYYCAKQDLHGTSSLFDYWGQGTLVTVSS
B13: DOM23h-815 (VHH, not shown: small tags and cut ends)
VHH: EVQLLESGGGLVQPGGSLRLSCAASGFTFAEDRMWWVRQAPGKGLEWVSAIDPQGQHTYYADSVKGRFTISRDNSKNTLYLQMNSLRAEDTAVYYCAKQSTGSATSDYWGQGTLVTVSS

target: human TGF-βRII on cells (SBE-bla HEK 293T cells; A549 cells) (human, UniProt P37173 23-567); assay: cell-based or functional assay
Sequence (P37173 23-567): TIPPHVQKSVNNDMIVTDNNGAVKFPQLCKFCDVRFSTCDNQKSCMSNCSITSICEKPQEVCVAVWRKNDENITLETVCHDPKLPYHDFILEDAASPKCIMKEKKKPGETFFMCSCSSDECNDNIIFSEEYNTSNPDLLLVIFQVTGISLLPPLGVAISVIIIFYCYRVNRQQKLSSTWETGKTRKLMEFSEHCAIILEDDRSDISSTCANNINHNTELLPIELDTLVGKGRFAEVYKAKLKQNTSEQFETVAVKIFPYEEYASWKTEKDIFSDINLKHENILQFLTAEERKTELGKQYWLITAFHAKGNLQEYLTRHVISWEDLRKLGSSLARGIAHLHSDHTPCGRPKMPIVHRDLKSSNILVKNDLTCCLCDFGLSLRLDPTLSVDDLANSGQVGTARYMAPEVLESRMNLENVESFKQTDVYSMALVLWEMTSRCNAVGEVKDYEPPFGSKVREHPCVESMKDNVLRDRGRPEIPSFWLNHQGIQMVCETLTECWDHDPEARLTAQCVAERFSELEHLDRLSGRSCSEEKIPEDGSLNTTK

| IC50 nM, Mean (SBE-bla HEK 293T cell sensor assay, h2) | Binder |
| --- | --- |
| 6300 nM | B1 |
| 5350 nM | B2 |
| > 11100 nM | B3 |
| > 9330 nM | B4 |
| 10100 nM | B5 |
| 1050 nM | B6 |
| > 3130 nM | B7 |
| 2040 nM | B8 |
| 9900 nM | B9 |
| 2920 nM | B10 |
| > 11600 nM | B11 |
| > 9550 nM | B12 |
| 7120 nM | B13 |
